According to patent US20230416345A1, “NEW TYPE II COLLAGEN BINDING PROTEINS” (Navigo Proteins GmbH, priority 2020, published 2023):

Key:
[1] = biological target: T1, human collagen type V (h Col V) (Homo sapiens, UniProt P05997+P20908); assay: ELISA specificity vs human collagen type V; type: binding
T1 construct: purchased Abcam ab7537
Protocol: (§1) High binding plates (Greiner, 781061) were immobilized with 2.5 μg/ml recombinant human collagen type II (h Col II, Chondrex, CHX-20051), rabbit collagen type II (rbCol II, prepared from rabbit eyes), porcine collagen type II (p Col II, prepared from porcine eyes), human collagen type I, (h Col I, Sigma, C5483-1MG), human collagen type V (h Col V, Abcam, ab7537), human collagen type III (h Col Ill, Abcam, ab7535) and 67B89 (domain of fibronectin, produced in E. coli) respectively over night at 4° C. ELISA-plates were washed 3 times with PBST (PBS+ 0.1% Tween) and blocked with 3% BSA/0.5% Tween/PBS 2 h at RT. After washing with PBST, dilution series of 1.1 μM to 7×10^−4 nM of dimers (CID 211999, CID 212000), dilution series of 100 nM to 7×10^−6 nM of tetramers (CID 212001 and CID 212704) and dilution series of 10 μM to 2 nM of dimer (CID 212705) were incubated on ELISA-plates 1 h at rt. Plates were washed with PBST and incubated with biotinylated anti-StrepTag-ab (Antikörper-online, ABIN1573895) with a dilution of 1:10.000 for 1 h at rt. The binding was visualized with a-rabbit-IgG-HRP (Sigma, A9169) with a dilution of 1:10.000 and as substrate TMB Plus von KEM EN TEC Diagnostic, Kat-Nr. 4395.

[2] = biological target: T2, recombinant human collagen type II (h Col II) (Homo sapiens, UniProt P02458); assay: KD-determination by ELISA vs human collagen type II; type: binding; settings: type II collagen; tetramers: of different species
T2 construct: purchased Chondrex CHX-20051
Protocol: as §1

[3] = biological target: T3, 67B89 (domain of fibronectin) (Homo sapiens, UniProt P02751); assay: ELISA specificity vs 67B89; type: binding
T3 construct: unrelated fibronectin domain EDB (67B89) could be observed; made in house; host or cells: E. coli
Protocol: as §1

[4] = biological target: T4, hCol2 (human Type II collagen) (Homo sapiens, UniProt P02458); assay: Binding analysis by SPR (Biacore 3000) vs human type II collagen; settings: dimers or tetramers; Langmuir 1:1 model
T4 construct: purchased Chondrex
Protocol: Proteins with affinity tag were purified by affinity chromatography and size exclusion. After affinity chromatography purification using Strep-Tactin Superflow high capacity cartridges (IBA Lifesciences) a size exclusion chromatography (SEC) was performed using an Äkta system and a Superdex™ 200 HiLoad 16/600 column (Cytiva). Fused variants with Aflibercept were purified via MabSelect SuRe (Cytiva) affinity chromatography followed by a size exclusion chromatography (SEC) using an Äkta system and a Superdex™ 200 HiLoad 16/600 column (Cytiva). All chromatography processing steps were carried out on AKTA systems using matrices from Cytiva. Homogenous species of all purified ligands were obtained; no aggregation was detected. Following SOS-PAGE analysis positive fractions were pooled and their protein concentrations were measured. Further analysis included SOS-PAGE, SE-HPLC and RP-HPLC. Protein concentrations were determined by absorbance measurement at 280 nm using the molar absorbent coefficient. Reversed phase chromatography (RP-HPLC) was performed using a Dionex HPLC system and a PLRP-S (5 μm, 300 Å) column (Agilent). Analytic size exclusion chromatography (SE-HPLC) was performed using a Dionex HPLC system and a Superdex200 increase 5/150 GL (Cytiva). Binding of Collagen II was evaluated by SPR measurements using a Biacore 3000 system. Purified Collagen II was obtained from Chondrex.inc and VEGF-165 was obtained from Millipore. Targets were immobilized on a CM5-Sensor via NHS/EDC chemistry (immobilization level ˜1000 RU). Binding molecules were injected at different concentration and affinity was calculated by langmuir 1:1 binding model.
The purified proteins were immobilized on a CM-5 sensor chip (GE Healthcare) using NHS/EDC after PDEA activation resulting in 110-140 RU with a Biacore 3000 system (GE Healthcare). The chip was equilibrated with SPR running buffer (PBS 0.05% Tween pH 7.3). Upon binding, target analyte was accumulated on the surface increasing the refractive index. This change in the refractive index was measured in real time and plotted as response or resonance units versus time. The analytes were applied to the chip in serial dilutions with a flow rate of 30 μl/min. The association was performed for 120 seconds and the dissociation for 120 seconds. After each run, the chip surface was regenerated with 30 μl regeneration buffer (10 mM glycine pH 2.0) and equilibrated with running buffer.
Binding studies were carried out by the use of the BIAcore 3000 (GE Healthcare); data evaluation was operated via the BIAevaluation 3.0 software, provided by the manufacturer, using the Langmuir 1:1 model (RI=0). Evaluated dissociation constants (KD) were standardized against the immobilized protein and indicated. Shown is the change in refractive index measured in real time and plotted as response or resonance unit [RU] versus time [sec].

T1 sequence (P20908 38-1605 limits assumed): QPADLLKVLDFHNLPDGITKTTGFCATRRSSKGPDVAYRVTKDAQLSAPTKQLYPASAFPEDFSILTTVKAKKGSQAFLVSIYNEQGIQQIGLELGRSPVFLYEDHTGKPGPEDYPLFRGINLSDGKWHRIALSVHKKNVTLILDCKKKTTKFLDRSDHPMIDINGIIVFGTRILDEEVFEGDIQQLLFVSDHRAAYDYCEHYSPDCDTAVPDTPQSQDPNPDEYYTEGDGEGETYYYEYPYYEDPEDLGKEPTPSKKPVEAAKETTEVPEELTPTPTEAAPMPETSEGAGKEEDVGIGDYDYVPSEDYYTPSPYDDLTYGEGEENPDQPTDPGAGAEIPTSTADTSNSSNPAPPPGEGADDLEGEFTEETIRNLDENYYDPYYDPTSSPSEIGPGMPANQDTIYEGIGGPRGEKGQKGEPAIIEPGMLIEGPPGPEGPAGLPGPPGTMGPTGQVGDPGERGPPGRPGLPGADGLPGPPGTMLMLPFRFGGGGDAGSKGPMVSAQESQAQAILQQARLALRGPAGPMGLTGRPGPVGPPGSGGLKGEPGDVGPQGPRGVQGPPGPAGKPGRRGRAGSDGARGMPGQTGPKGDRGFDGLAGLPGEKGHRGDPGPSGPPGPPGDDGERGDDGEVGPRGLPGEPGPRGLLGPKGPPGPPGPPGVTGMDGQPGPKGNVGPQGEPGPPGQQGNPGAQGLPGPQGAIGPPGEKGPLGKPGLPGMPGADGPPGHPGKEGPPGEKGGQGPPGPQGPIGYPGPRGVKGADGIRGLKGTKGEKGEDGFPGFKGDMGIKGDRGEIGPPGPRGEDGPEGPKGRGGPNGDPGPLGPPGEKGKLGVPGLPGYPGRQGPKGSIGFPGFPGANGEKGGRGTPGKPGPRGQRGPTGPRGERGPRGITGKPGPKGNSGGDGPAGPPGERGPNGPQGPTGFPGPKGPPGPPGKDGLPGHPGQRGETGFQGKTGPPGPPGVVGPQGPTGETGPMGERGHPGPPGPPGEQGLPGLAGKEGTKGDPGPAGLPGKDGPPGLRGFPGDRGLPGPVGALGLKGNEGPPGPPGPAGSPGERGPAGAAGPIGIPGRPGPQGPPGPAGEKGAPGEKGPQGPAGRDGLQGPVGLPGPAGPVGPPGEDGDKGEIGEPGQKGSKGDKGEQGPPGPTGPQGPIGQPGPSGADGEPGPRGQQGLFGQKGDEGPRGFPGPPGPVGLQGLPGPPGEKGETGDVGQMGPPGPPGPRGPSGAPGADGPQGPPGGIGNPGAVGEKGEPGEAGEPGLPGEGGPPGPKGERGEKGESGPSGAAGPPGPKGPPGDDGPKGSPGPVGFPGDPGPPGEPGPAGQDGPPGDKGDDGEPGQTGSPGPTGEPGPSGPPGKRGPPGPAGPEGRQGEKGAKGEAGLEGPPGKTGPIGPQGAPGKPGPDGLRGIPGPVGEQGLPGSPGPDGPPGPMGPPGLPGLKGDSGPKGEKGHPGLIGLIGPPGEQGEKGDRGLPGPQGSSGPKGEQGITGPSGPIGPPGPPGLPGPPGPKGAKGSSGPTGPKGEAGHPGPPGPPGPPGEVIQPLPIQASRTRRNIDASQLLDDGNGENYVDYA
T1 sequence (P05997 27-1229 limits assumed): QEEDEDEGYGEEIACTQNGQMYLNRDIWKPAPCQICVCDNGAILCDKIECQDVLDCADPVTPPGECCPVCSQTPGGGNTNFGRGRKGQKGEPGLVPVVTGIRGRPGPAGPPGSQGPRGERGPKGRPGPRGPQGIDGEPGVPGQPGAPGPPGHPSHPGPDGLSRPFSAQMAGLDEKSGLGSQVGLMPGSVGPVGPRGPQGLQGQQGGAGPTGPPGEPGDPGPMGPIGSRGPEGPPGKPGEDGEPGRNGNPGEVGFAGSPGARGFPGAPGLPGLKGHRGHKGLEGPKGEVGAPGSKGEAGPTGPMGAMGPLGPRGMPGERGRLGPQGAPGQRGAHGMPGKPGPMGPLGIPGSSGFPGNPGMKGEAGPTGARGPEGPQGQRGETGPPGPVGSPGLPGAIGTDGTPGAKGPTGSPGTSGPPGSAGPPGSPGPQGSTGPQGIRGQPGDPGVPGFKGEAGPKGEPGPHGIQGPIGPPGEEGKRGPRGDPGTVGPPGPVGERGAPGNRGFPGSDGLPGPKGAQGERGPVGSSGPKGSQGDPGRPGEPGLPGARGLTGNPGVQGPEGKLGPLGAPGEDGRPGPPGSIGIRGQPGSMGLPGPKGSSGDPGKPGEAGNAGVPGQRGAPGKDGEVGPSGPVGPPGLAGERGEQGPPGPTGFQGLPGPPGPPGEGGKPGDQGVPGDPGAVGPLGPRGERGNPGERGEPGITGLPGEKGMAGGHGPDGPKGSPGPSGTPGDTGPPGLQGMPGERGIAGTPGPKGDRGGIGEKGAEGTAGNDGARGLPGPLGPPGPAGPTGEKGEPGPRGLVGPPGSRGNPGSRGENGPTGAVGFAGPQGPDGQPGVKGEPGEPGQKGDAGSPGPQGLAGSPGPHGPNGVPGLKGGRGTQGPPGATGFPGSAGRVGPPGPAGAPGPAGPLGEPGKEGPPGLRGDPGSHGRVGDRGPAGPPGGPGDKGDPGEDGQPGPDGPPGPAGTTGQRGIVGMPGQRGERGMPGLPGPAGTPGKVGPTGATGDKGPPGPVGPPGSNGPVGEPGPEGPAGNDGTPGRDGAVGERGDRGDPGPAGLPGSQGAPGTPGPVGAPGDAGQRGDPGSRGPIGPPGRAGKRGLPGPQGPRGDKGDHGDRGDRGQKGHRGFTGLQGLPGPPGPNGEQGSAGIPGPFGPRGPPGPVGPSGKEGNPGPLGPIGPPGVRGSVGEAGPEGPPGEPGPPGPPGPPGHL
T3 sequence (P02751 1089-1540 limits assumed): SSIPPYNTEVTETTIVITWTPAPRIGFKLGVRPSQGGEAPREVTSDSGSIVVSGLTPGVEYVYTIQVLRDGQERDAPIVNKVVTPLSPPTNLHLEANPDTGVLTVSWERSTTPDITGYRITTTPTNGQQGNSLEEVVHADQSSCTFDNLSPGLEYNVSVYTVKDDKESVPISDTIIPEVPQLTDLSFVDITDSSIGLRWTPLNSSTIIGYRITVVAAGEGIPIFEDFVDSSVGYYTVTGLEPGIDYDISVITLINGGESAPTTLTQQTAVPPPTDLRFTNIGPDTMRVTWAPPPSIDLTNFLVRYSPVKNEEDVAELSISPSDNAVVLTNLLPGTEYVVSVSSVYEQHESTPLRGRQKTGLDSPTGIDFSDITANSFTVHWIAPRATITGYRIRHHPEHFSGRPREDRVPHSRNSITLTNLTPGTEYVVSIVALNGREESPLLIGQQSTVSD
T4 sequence (P02458 182-1241): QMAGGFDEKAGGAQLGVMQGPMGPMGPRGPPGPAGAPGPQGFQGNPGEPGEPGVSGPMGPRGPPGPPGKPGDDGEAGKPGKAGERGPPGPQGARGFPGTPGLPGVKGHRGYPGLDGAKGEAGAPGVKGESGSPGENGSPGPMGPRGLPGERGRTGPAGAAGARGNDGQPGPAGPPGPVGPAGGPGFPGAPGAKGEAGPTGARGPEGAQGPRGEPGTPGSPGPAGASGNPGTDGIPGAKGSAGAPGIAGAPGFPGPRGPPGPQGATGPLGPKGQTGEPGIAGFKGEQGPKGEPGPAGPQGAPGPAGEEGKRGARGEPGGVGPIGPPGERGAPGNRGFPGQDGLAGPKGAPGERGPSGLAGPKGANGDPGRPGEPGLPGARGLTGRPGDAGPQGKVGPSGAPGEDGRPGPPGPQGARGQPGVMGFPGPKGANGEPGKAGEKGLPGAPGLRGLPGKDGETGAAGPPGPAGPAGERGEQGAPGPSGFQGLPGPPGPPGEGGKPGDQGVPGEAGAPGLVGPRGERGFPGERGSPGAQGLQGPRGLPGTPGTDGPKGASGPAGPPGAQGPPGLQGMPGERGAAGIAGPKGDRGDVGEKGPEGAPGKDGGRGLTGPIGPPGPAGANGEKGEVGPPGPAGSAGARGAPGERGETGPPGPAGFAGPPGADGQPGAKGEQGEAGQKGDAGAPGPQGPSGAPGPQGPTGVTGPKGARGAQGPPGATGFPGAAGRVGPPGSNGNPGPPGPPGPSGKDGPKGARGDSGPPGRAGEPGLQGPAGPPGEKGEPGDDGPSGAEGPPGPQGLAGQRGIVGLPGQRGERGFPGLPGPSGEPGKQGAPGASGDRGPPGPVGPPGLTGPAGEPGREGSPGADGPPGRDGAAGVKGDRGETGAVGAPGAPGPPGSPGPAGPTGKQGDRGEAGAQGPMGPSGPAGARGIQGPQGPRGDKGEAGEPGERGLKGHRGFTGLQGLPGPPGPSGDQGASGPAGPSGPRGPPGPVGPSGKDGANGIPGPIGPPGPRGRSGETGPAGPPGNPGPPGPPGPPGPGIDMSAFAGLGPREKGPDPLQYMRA
T2 sequence (P02458 182-1241): as above

B1: CID 212000: dimer of SEQ ID NO: 2 (dimer with linker between the monomers) (protein)
chain: IAAKFDEAQSAADSEILHLPNLTEQQRHYFRRWLSDDPSVSTHILTQAQHLNDDQAPKGGGGSGGGGSGGGGSGGGGSIAAKFDEAQSAADSEILHLPNLTEQQRHYFRRWLSDDPSVSTHILTQAQHLNDDQAPKSAWSHPQFEK
modifications: Col2 binding protein (dimer of 211261) (CID212000)
binding to type V collagen (ELISA) [1]: No unspecific binding | binding affinity (KD) to type II collagen by ELISA, in words [2]: 1-2-digit nM | binding to domain of fibronectin (67B89) (ELISA) [3]: No unspecific binding | Affinity [SPR] vs hCol2 [4]: 180 nM
